Source: patent publication US20250136677A1 (ZOETIS SERVICES, published 2025)

T1: wildtype feline IL-31 protein (Feline_IL31_wildtype) (feline)
T1 construct: Full length feline IL-31 with C-terminal His tag, secreted from ExpiCHO cells; also called fIL-31
T1 chain: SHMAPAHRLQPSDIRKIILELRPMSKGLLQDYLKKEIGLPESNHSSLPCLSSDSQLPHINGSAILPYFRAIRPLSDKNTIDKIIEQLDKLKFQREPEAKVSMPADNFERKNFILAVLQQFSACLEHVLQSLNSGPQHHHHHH

T2: canine IL-31 protein (Canine_IL31) (canine)
T2 chain: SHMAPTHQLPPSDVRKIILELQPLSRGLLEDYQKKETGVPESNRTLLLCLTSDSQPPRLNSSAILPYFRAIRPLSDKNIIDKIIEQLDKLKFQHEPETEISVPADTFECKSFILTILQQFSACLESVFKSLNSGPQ

B1: Feline 11E12 1.1 FW2 (antibody, V domains shown)
VH: QVLLVQSGAEVKKPGASVKIFCKASGYSFTYYDINWLRQAPEQGLEWMGWIFPGDGGTKYNETFKGRLTLTADTSTNTVYMELSSLRSADTAMYYCARGGTSVIRDAMDYWGQGALVTVSS
VL: EIQMTQSPSSLSASPGDRVTITCRASESVDNYGISFMHWYQQKPGQPPKLLIYRASNLESGVPSRFSGSGSGTDFTLTISSLEPEDAATYYCQQSNKDPLTFGQGT
notes: Feline 11E12 VL1 with the mouse FW2; Feline heavy and kappa constant regions
B2: A12 (antibody, V domains shown)
VH: QVLLVQSGAEVRTPGASVKIFCKASGYSFTSYTIHWLRQAPAQGLEWMGNINPTSGYTENNQRFKDRLTLTADTSTNTAYMELSSLRSADTAMYYCARWGFKYDGEWSFDVWGAGTTVTVSS
VL: EIQMTQSPSSLSASPGDRVTITCRASQGISAWLSWYQQKPGNIPKVLINKASNLHIGVPSRFSGSGSGTDFTLTISSLEPEDAATYYCLQSQTYPLTFGGGTKLEIK
B3: A26 (antibody, V domains shown)
VH: QVLLVQSGAEVRTPGASVKIFCKASGYSFTSYTIHWLRQAPAQGLEWMGNINPTSGYTENNQRFKDRLTLTADTSTNTAYMELSSLRSADTAMYYCARWGFKYDGEWSFDVWGAGTTVTVSS
VL: EIQMTQSPSSLSASPGDRVTITCRASQGISIWLSWYQQKPGNIPKVLINKASNLHIGVPSRFSGSGSGTDFTLTISSLEPEDAATYYCLQSQTYALTFGGGTKLEIK
B4: A20 (antibody, V domains shown)
VH: QVLLVQSGAEVRTPGASVKIFCKASGYSFTSYTIHWLRQAPAQGLEWMGNINPTSGYTENNQRFKDRLTLTADTSTNTAYMELSSLRSADTAMYYCARWGFKYDGEWSFDVWGAGTTVTVSS
VL: EIQMTQSPSSLSASPGDRVTITCRASQGISIWLSWYQQKPGNIPKVLINKASNLHAGVPSRFSGSGSGTDFTLTISSLEPEDAATYYCLQSQTYPLTFGGGTKLEIK
B5: A15 (antibody, V domains shown)
VH: QVLLVQSGAEVRTPGASVKIFCKASGYSFTSYTIHWLRQAPAQGLEWMGNINPTSGYTENNQRFKDRLTLTADTSTNTAYMELSSLRSADTAMYYCARWGFKYDGEWSFDVWGAGTTVTVSS
VL: EIQMTQSPSSLSASPGDRVTITCRASQGISIWLSWYQQKPGNIPKVLINAASNLHIGVPSRFSGSGSGTDFTLTISSLEPEDAATYYCLQSQTYPLTFGGGTKLEIK
B6: A24 (antibody, V domains shown)
VH: QVLLVQSGAEVRTPGASVKIFCKASGYSFTSYTIHWLRQAPAQGLEWMGNINPTSGYTENNQRFKDRLTLTADTSTNTAYMELSSLRSADTAMYYCARWGFKYDGEWSFDVWGAGTTVTVSS
VL: EIQMTQSPSSLSASPGDRVTITCRASQGISIWLSWYQQKPGNIPKVLINKASNLHIGVPSRFSGSGSGTDFTLTISSLEPEDAATYYCLQSQAYPLTFGGGTKLEIK
B7: A27 (antibody, V domains shown)
VH: QVLLVQSGAEVRTPGASVKIFCKASGYSFTSYTIHWLRQAPAQGLEWMGNINPTSGYTENNQRFKDRLTLTADTSTNTAYMELSSLRSADTAMYYCARWGFKYDGEWSFDVWGAGTTVTVSS
VL: EIQMTQSPSSLSASPGDRVTITCRASQGISIWLSWYQQKPGNIPKVLINKASNLHIGVPSRFSGSGSGTDFTLTISSLEPEDAATYYCLQSQTYPATFGGGTKLEIK
B8: A23 (antibody, V domains shown)
VH: QVLLVQSGAEVRTPGASVKIFCKASGYSFTSYTIHWLRQAPAQGLEWMGNINPTSGYTENNQRFKDRLTLTADTSTNTAYMELSSLRSADTAMYYCARWGFKYDGEWSFDVWGAGTTVTVSS
VL: EIQMTQSPSSLSASPGDRVTITCRASQGISIWLSWYQQKPGNIPKVLINKASNLHIGVPSRFSGSGSGTDFTLTISSLEPEDAATYYCLQSATYPLTFGGGTKLEIK
B9: A18 (antibody, V domains shown)
VH: QVLLVQSGAEVRTPGASVKIFCKASGYSFTSYTIHWLRQAPAQGLEWMGNINPTSGYTENNQRFKDRLTLTADTSTNTAYMELSSLRSADTAMYYCARWGFKYDGEWSFDVWGAGTTVTVSS
VL: EIQMTQSPSSLSASPGDRVTITCRASQGISIWLSWYQQKPGNIPKVLINKASNAHIGVPSRFSGSGSGTDFTLTISSLEPEDAATYYCLQSQTYPLTFGGGTKLEIK
B10: A13 (antibody, V domains shown)
VH: QVLLVQSGAEVRTPGASVKIFCKASGYSFTSYTIHWLRQAPAQGLEWMGNINPTSGYTENNQRFKDRLTLTADTSTNTAYMELSSLRSADTAMYYCARWGFKYDGEWSFDVWGAGTTVTVSS
VL: EIQMTQSPSSLSASPGDRVTITCRASQGISIALSWYQQKPGNIPKVLINKASNLHIGVPSRFSGSGSGTDFTLTISSLEPEDAATYYCLQSQTYPLTFGGGTKLEIK
B11: A25 (antibody, V domains shown)
VH: QVLLVQSGAEVRTPGASVKIFCKASGYSFTSYTIHWLRQAPAQGLEWMGNINPTSGYTENNQRFKDRLTLTADTSTNTAYMELSSLRSADTAMYYCARWGFKYDGEWSFDVWGAGTTVTVSS
VL: EIQMTQSPSSLSASPGDRVTITCRASQGISIWLSWYQQKPGNIPKVLINKASNLHIGVPSRFSGSGSGTDFTLTISSLEPEDAATYYCLQSQTAPLTFGGGTKLEIK
B12: A28 (antibody, V domains shown)
VH: QVLLVQSGAEVRTPGASVKIFCKASGYSFTSYTIHWLRQAPAQGLEWMGNINPTSGYTENNQRFKDRLTLTADTSTNTAYMELSSLRSADTAMYYCARWGFKYDGEWSFDVWGAGTTVTVSS
VL: EIQMTQSPSSLSASPGDRVTITCRASQGISIWLSWYQQKPGNIPKVLINKASNLHIGVPSRFSGSGSGTDFTLTISSLEPEDAATYYCLQSQTYPLAFGGGTKLEIK
B13: A16 (antibody, V domains shown)
VH: QVLLVQSGAEVRTPGASVKIFCKASGYSFTSYTIHWLRQAPAQGLEWMGNINPTSGYTENNQRFKDRLTLTADTSTNTAYMELSSLRSADTAMYYCARWGFKYDGEWSFDVWGAGTTVTVSS
VL: EIQMTQSPSSLSASPGDRVTITCRASQGISIWLSWYQQKPGNIPKVLINKAANLHIGVPSRFSGSGSGTDFTLTISSLEPEDAATYYCLQSQTYPLTFGGGTKLEIK
B14: mouse:canine 11E12 chimera (antibody)
heavy: QVQLQQSGAELVKPGASVKLSCKASGYTFKYYDINWVRQRPEQGLEWIGWIFPGDGGTKYNETFKGKATLTTDKSSSTAYMQLSRLTSEDSAVYFCARGGTSVIRDAMDYWGQGTSVTVSSASTTAPSVFPLAPSCGSTSGSTVALACLVSGYFPEPVTVSWNSGSLTSGVHTFPSVLQSSGLYSLSSMVTVPSSRWPSETFTCNVAHPASKTKVDKPVPKRENGRVPRPPDCPKCPAPEMLGGPSVFIFPPKPKDTLLIARTPEVTCVVVDLDPEDPEVQISWFVDGKQMQTAKTQPREEQFNGTYRVVSVLPIGHQDWLKGKQFTCKVNNKALPSPIERTISKARGQAHQPSVYVLPPSREELSKNTVSLTCLIKDFFPPDIDVEWQSNGQQEPESKYRTTPPQLDEDGSYFLYSKLSVDKSRWQRGDTFICAVMHEALHNHYTQESLSHSPGK
light: DIVLTQSPASLAVSLGQRATISCRASESVDNYGISFMHWYQQKPGQPPKLLIYRASNLESGIPARFSGSGSRTDFTLTINPVETDDVATYYCQQSNKDPLTFGAGTKLELKRNDAQPAVYLFQPSPDQLHTGSASVVCLLNSFYPKDINVKWKVDGVIQDTGIQESVTEQDKDSTYSLSSTLTMSSTEYLSHELYSCEITHKSLPSTLIKSFQRSEC
notes: Mouse variable regions on canine IgG constant regions; made in HEK 293 cells; also called canine chimeric form of 11E12

Legend:
[1] = molecular target: T1, wildtype feline IL-31 protein …; assay: SPR (Biacore), IL-31 on chip, 1:1 fit
Procedure: The affinity with which candidate mAbs bind canine and feline IL-31 was determined using surface plasmon resonance (SPR) on a Biacore system (Biocore Life Sciences (GE Healthcare), Uppsala, Sweden). To avoid affinity differences associated with differential surface preparation that can occur when immobilizing antibodies to surfaces; a strategy was employed where IL-31 was directly conjugated to the surface. Immobilization was obtained by amine coupling 5 μg/mL IL-31 using N-hydroxysuccinimide (NHS)/1-Ethyl-3-(3-dimethylaminopropyl) carbodiimide (EDC) chemistry. Chips were quenched with ethanolamine and the affinity with which all candidate mAbs bound to the immobilized IL-31 was evaluated. All curves were fit to a 1:1 model. […] Results for affinity measurements are described herein.

[2] = molecular target: T2, canine IL-31 protein (Canine_IL31); assay: SPR (Biacore), IL-31 on chip, 1:1 fit
[3] = molecular target: T1, wildtype feline IL-31 protein …; assay: cell-based or functional assay
[4] = molecular target: T1, wildtype feline IL-31 protein …; assay: cell-based or functional assay
[5] = molecular target: T1, wildtype feline IL-31 protein …; assay: Biacore, feline IL-31 chip, mAb 100 nM, share of points within parent mean +/-3 SD; parameters: key: % of mutant data points within parent mAb mean ±3 SD
Description: The region of an antibody responsible for antigen recognition represents the paratope. A paratope is created by a combination of amino acids in the complementarity determining regions (CDRs) of both the heavy and light chain variable regions. The binding between antibody and antigen is often mediated by side chains of CDR residues with side chains or carbohydrate moieties of the antigen. To help define critical side chains involved in antibody recognition alanine scanning mutagenesis was performed on each CDR residue in both the heavy and light chain. These mutants were then individually tested for the ability to bind feline IL-31 using the biacore and evaluated for inhibition of IL-31-mediated signaling in the FCWF-4 cell based assay.
The mean response unit of four replicates of the parent mAb+/−3 standard deviations was used to generate parameters to define a threshold of response units comprising both the on- and off-rates antibody binding (FIG. 22). The percentage of data points for each mutant fell within this threshold was then used to define a “% similarity score” (FIG. 23).

Binder	% Inhibition Relative to Parent (pSTAT, FCWF-4 cells) [4] [%]	Binding Similarity score [5]	other results
B1			Kd [1]: 0.75 nM; koff [1]: 0.000639 s⁻¹; kon [1]: 852000 M⁻¹ s⁻¹; koff [2]: 0.000318 s⁻¹; kon [2]: 45200 M⁻¹ s⁻¹; IC50, inhibition of feline IL-31-induced STAT3 phosphorylation, canine DH82 cells [3]: 5.66 µg/mL; IC50, inhibition of feline IL-31-induced STAT3 phosphorylation, feline FCWF4 cells [3]: 4.38 µg/mL
B2	19.3	25.7	
B3	43.7	20.9	
B4	29	31.3	
B5	34.1	11.6	
B6	56.7	100	
B7	7.2	11.7	
B8	29.2	64.8	
B9	49.4	100	
B10	4.4	2.4	
B11	1.3	4.4	
B12	59.7	42.2	
B13	69.3	58	
B14			Kd [1]: 0.248 nM; koff [1]: 0.000108 s⁻¹; kon [1]: 437000 M⁻¹ s⁻¹; Kd [2]: 0.000826 nM; koff [2]: 6.55e-07 s⁻¹; kon [2]: 793000 M⁻¹ s⁻¹; IC50, inhibition of feline IL-31-induced STAT3 phosphorylation, feline FCWF4 cells [3]: 1.15 µg/mL
